In US20160053277A1, “Compositions Having Dicamba Decarboxylase Activity and Methods of Use” (PIONEER HI-BRED INTERNATIONAL, INC., priority 2013, published 2016):
Numbering of substitutions follows the chain as printed.

B1: 274 (protein)
chain: MAQGKVALEEHFAIPETLQDSAGFVPGDYWKELQHRLLDIQDTRLKLMDAHGIETMILSLAAPAVQAIPDRRKAIEIARRANDFLAEECAKRPDRFLAFAALPMQDVDAATEELQRCVNDLGFVGALVNGFSVEGDGQTPLYYDLPQYRPFWGEVEKLDVPFYLHPRNPLPQDSRIYDGHPWLLGPTWAFAQETAVHALRLMASGLFDEHPRLNIILGHLGEGLPYMMYRIDHRIAWVKLPPRYPAKRRFMDYFNENFHITTSGNFRTQTLIDAILEIGADRILFSTDWPFENIDHAADWFNATSIAEADRVKIGRTNARRLFKLDLD
modifications: Dicamba decarboxylase variant
B2: 24 (protein)
chain: MALGKVVLEEAYERPNMKEKSNHEAGLYIAPNDRPRYMRQINDINQERLKLADAHGVGYTIISLTVPGIQGIFDKTEAERVATETNNWAAEQIKNHRDRLGAFACLSMHDPAQAANELRRCVQELGFHGALLCSFQHAGPDGETYLFYDQPKYDVFWKALTELDVPLYIHPAAPTGSILERLYAQRPALIGPPLSFANDVSLHTLGIISNGVFDRFPNLKIIIGHLGEHIPFDFWRIDHWFRDVKKPIADEEGRVMAQKSLYHYFKHNIWLTTSGHFSTPTLKYVVNEIGVDRVLFSVDYPYETTESGCNWWDHDKDAIVEAVGGVDNYYAIGRENAKKLLRLDKFHDSDAR
modifications: Aspergillus niger
B3: 123 (protein)
chain: B1 chain with F84V, M104L, V107P, V133Q, L220M, Y229W, I235V, A298S, L327G, D328A
modifications: Dicamba decarboxylase variant clone: S03902153
B4: 27 (protein, listed as Aspergillus oryzae)
chain: MALGKIALEEAFALPRFEEKTRWWASLFSTDAETHVKEITDINKIRIEHADKHGVGYQILSYTAPGVQDIWDPVEAQALAVEINDYIAEQVRVNPDRFGAFATLSMHNPKEAADELRRCVEKYGFKGALVNDTQRAGPDGDDMIFYDNADWDIFWQTCTELDVPFYMHPRNPTGTIYEKLWADRKWLVGPPLSFAHGVSLHVLGMVTNGVFDRHPKLQIIMGHLGEHVPFDMWRINHWFEDRKKLLGLAETCKKTIRDYFAENIWITTSGHFSTTTLNFCMAEVGSDRILFSIDYPFETFSDACEWFDNAELNGTDRLKIGRENAKKLFKLDSYKDSSA
B5: 25 (protein, listed as Acidovorax avenae)
chain: MAQGKIGLEEHFAIPETLQDSAGFVPGDYWKELSLRLLDIHERRLREMDENGMEMMILSLNAPAVQAIPDTKKAVEIAVRANDFLAEQVARRPDRFQAFAALPMQDPDLATRELERCMQDLGFRGALVNGFSQVGTPENVVYYDAPQYGDFWAAVERLDAPFYLHPRNPIASWAQIYQGHPWLMGPTWAFAQETAVHALRLMASGLFDRHPGLRIILGHLGEGLPYNMWRVDHRNAWVDMPKGYPAKRKLCDYFHENFYLTTSGNFRTQTLIDALLEVGADRILFSTDWPFENVDHAAHWFDDAAISEADRLKIGRTNALSLFKLPQG
B6: 23 (protein, listed as Aplysina aerophoba)
chain: MAIDIDARSQPGLETARRAMSRRDFLGGAAAFGITAAATTALPASTAAGEEEDLFLLGLEEHFATAELRRLNGIQFPQGTPRFDINDVGAGRIADMDAAGIDIQVLSALTPGAQNLPGAEGVAYARRLNSWVAHEVIPAYPGRFRAFATLPLSEPQAAADELEYAVRELGFLGCMTYGAVDGKFLDHADFVPVLARAETLDVPIYIHPNWASPQVMDTYYNGLGNEWVSRVLSGAGYGWHQEVALQCLRMIASGVFDRFPRLQIIVGHMGEGLPFFYWRFGDDLARITADTLEKPVQQYFHDNFWITTSAFFRDELLRLVLSVMGEDRVMFAVDYPFVSNKVGADWFRAVDLPRNVKEKIAHKNAERLLKIGPF

experiment: Shuffled variant libraries: 14CO2 capturing assay in 384-well format; settings: decarboxylation activity (carbon dioxide released) compared with unmutated backbone protein SEQ ID NO 133 (DDEC0201)

Question: With B1 as the molecule, how does the “Fold Activity” value read?
Answer: 1.0

experiment: 14C assay with IPTG-induced recombinant E. coli cells: 14CO2 captured from [14C]-carboxyl-labeled dicamba; settings: dicamba decarboxylation activity of the protein of the given SEQ ID NO; High / Low / No

Question: With B2 as the molecule, how does the “Enzymatic Detection level” value read?
Answer: Low

Question: Which “Enzymatic Detection level” value does the source give for B3 here?
Answer: High

Question: Which “Enzymatic Detection level” value does the source give for B4 here?
Answer: No

Question: With B5 as the molecule, how does the “Enzymatic Detection level” value read?
Answer: Low

Question: For B6, which “Enzymatic Detection level” value is on record?
Answer: Low

same assay, conditions: induced recombinant E. coli cells, [14C]-carboxyl-labeled dicamba, 14CO2 capture

Question: With B2 as the molecule, how does the “Dicamba Decarboxylase Activity” value read?
Answer: Low

Question: With B4 as the molecule, how does the “Dicamba Decarboxylase Activity” value read?
Answer: No

Question: With B5 as the molecule, how does the “Dicamba Decarboxylase Activity” value read?
Answer: Low

Question: For B6, which “Dicamba Decarboxylase Activity” value is on record?
Answer: Low

experiment: Saturation mutagenesis of SEQ ID NO:109: dicamba decarboxylation activity of point mutants (carbon dioxide released); settings: decarboxylation activity (carbon dioxide released) of point mutant compared with unmutated backbone protein; backbone SEQ ID NO: 109

Question: With B2 as the molecule, how does the “Fold Activity” value read?
Answer: 1.6

Question: With B3 as the molecule, how does the “Fold Activity” value read?
Answer: 1.3

Question: For B4, which “Fold Activity” value is on record?
Answer: 1

Question: For B5, which “Fold Activity” value is on record?
Answer: 1

Question: With B6 as the molecule, how does the “Fold Activity” value read?
Answer: 1.5
